Sequences and labels used below:
B1: W808stop (C-terminal deletion variant of ADAMTS-13, FLAG appended) (protein)
chain: PSHFQQSCLQALEPQAVSSYLSPGAPLKGRPPSPGFQRQRQRQRRAAGGILHLELLVAVGPDVFQAHQEDTERYVLTNLNIGAELLRDPSLGAQFRVHLVKMVILTEPEGAPNITANLTSSLLSVCGWSQTINPEDDTDPGHADLVLYITRFDLELPDGNRQVRGVTQLGGACSPTWSCLITEDTGFDLGVTIAHEIGHSFGLEHDGAPGSGCGPSGHVMASDGAAPRAGLAWSPCSRRQLLSLLSAGRARCVWDPPRPQPGSAGHPPDAQPGLYYSANEQCRVAFGPKAVACTFAREHLDMCQALSCHTDPLDQSSCSRLLVPLLDGTECGVEKWCSKGRCRSLVELTPIAAVHGRWSSWGPRSPCSRSCGGGVVTRRRQCNNPRPAFGGRACVGADLQAEMCNTQACEKTQLEFMSQQCARTDGQPLRSSPGGASFYHWGAAVPHSQGDALCRHMCRAIGESFIMKRGDSFLDGTRCMPSGPREDGTLSLCVSGSCRTFGCDGRMDSQQVWDRCQVCGGDNSTCSPRKGSFTAGRAREYVTFLTVTPNLTSVYIANHRPLFTHLAVRIGGRYVVAGKMSISPNTTYPSLLEDGRVEYRVALTEDRLPRLEEIRIWGPLQEDADIQVYRRYGEEYGNLTRPDITFTYFQPKPRQAWVWAAVRGPCSVSCGAGLRWVNYSCLDQARKELVETVQCQGSQQPPAWPEACVLEPCPPYWAVGDFGPCSASCGGGLRERPVRCVEAQGSLLKTLPPARCRAGAQQPAVALETCNPQPCPARWDYKDDDDK
B2: W897stop (C-terminal deletion variant of ADAMTS-13, FLAG appended) (protein)
chain: PSHFQQSCLQALEPQAVSSYLSPGAPLKGRPPSPGFQRQRQRQRRAAGGILHLELLVAVGPDVFQAHQEDTERYVLTNLNIGAELLRDPSLGAQFRVHLVKMVILTEPEGAPNITANLTSSLLSVCGWSQTINPEDDTDPGHADLVLYITRFDLELPDGNRQVRGVTQLGGACSPTWSCLITEDTGFDLGVTIAHEIGHSFGLEHDGAPGSGCGPSGHVMASDGAAPRAGLAWSPCSRRQLLSLLSAGRARCVWDPPRPQPGSAGHPPDAQPGLYYSANEQCRVAFGPKAVACTFAREHLDMCQALSCHTDPLDQSSCSRLLVPLLDGTECGVEKWCSKGRCRSLVELTPIAAVHGRWSSWGPRSPCSRSCGGGVVTRRRQCNNPRPAFGGRACVGADLQAEMCNTQACEKTQLEFMSQQCARTDGQPLRSSPGGASFYHWGAAVPHSQGDALCRHMCRAIGESFIMKRGDSFLDGTRCMPSGPREDGTLSLCVSGSCRTFGCDGRMDSQQVWDRCQVCGGDNSTCSPRKGSFTAGRAREYVTFLTVTPNLTSVYIANHRPLFTHLAVRIGGRYVVAGKMSISPNTTYPSLLEDGRVEYRVALTEDRLPRLEEIRIWGPLQEDADIQVYRRYGEEYGNLTRPDITFTYFQPKPRQAWVWAAVRGPCSVSCGAGLRWVNYSCLDQARKELVETVQCQGSQQPPAWPEACVLEPCPPYWAVGDFGPCSASCGGGLRERPVRCVEAQGSLLKTLPPARCRAGAQQPAVALETCNPQPCPARWEVSEPSSCTSAGGAGLALENETCVPGADGLEAPVTEGPGSVDEKLPAPEPCVGMSCPPGWGHLDATSAGEKAPSPWGSIRTGAQAAHVWDYKDDDDK
B3: W746stop (C-terminal deletion variant of ADAMTS-13, FLAG appended) (protein)
chain: PSHFQQSCLQALEPQAVSSYLSPGAPLKGRPPSPGFQRQRQRQRRAAGGILHLELLVAVGPDVFQAHQEDTERYVLTNLNIGAELLRDPSLGAQFRVHLVKMVILTEPEGAPNITANLTSSLLSVCGWSQTINPEDDTDPGHADLVLYITRFDLELPDGNRQVRGVTQLGGACSPTWSCLITEDTGFDLGVTIAHEIGHSFGLEHDGAPGSGCGPSGHVMASDGAAPRAGLAWSPCSRRQLLSLLSAGRARCVWDPPRPQPGSAGHPPDAQPGLYYSANEQCRVAFGPKAVACTFAREHLDMCQALSCHTDPLDQSSCSRLLVPLLDGTECGVEKWCSKGRCRSLVELTPIAAVHGRWSSWGPRSPCSRSCGGGVVTRRRQCNNPRPAFGGRACVGADLQAEMCNTQACEKTQLEFMSQQCARTDGQPLRSSPGGASFYHWGAAVPHSQGDALCRHMCRAIGESFIMKRGDSFLDGTRCMPSGPREDGTLSLCVSGSCRTFGCDGRMDSQQVWDRCQVCGGDNSTCSPRKGSFTAGRAREYVTFLTVTPNLTSVYIANHRPLFTHLAVRIGGRYVVAGKMSISPNTTYPSLLEDGRVEYRVALTEDRLPRLEEIRIWGPLQEDADIQVYRRYGEEYGNLTRPDITFTYFQPKPRQAWVWAAVRGPCSVSCGAGLRWVNYSCLDQARKELVETVQCQGSQQPPAWPEACVLEPCPPYWDYKDDDDK

From patent publication US20060251655A1 come the findings set out here.

The target in the data set is von Willebrand factor (vWF), prepared from plasma cryo fraction, P04275.
As to B1, the “vWF cleaving activity (SDS-PAGE)” value is listed as “vWF cleaving activity was clearly recognized from the full-length molecule to W688stop molecule”. Then B2, with “vWF cleaving activity was clearly recognized from the full-length molecule to W688stop molecule”; and B3, with “vWF cleaving activity was clearly recognized from the full-length molecule to W688stop molecule”.
